The results in this text go back to publication PMC12578645.

This assay concerns the target gB-Ecto.H516P (HSV-1 glycoprotein B ectodomain with H516P and an appended foldon; postfusion) (HSV-1 KOS strain) (UniProt P06437). The assay can be described thus: cryo-EM structure.

In turn, “gB-Ecto.H516P (HSV-1 glycoprotein B ectodomain with H516P and an appended foldon; postfusion) (from UniProt P06437 31-728) (domain or fragment)” came in with a stoichiometry N of 3.

What is called stoichiometry N is a count of units in the complex or per binding partner.
